In test [1] the target is control cells (Staphylococcus epidermidis), whole cells (Staphylococcus epidermidis). Kind of test: mono-scFv-phage ELISA on control cells. On the technique in general: An ELISA detects its analyte on a solid surface through an enzyme-linked reagent.
Test [2] addresses Propionibacterium acnes (P. acnes) whole cells, surface antigen not identified (Propionibacterium acnes). Kind of test: mono-scFv-phage ELISA on whole P. acnes.
Test [3] addresses control cells (Staphylococcus epidermidis), whole cells (Staphylococcus epidermidis). Kind of test: IgG ELISA on control cells.
For test [4], the target named is Propionibacterium acnes (P. acnes) whole cells, surface antigen not identified (Propionibacterium acnes). Kind of test: IgG ELISA on whole P. acnes.

Drawing on patent US20190224101A1, this text covers O.D. 450 nm and ELISA O.D. value for eight molecules.

B1: mono-scFv-phage No. 3 (scFv, V domains shown)
VH: QMQLVQSGAEVKKPGASVKVSCKASGYTFTDYYIHWVRQAPGQGLEWMGWINPNSGAPEFAQRFQGRVSMTRDASINTTYMELSGLRSEDTAVYYCVKGLEHAAGSAIFDRWGQGTMVTVSS
VL: QTVVTQEPSFSVSPGGTVTLTCGLTSGSVSTSHFPSWYQQTPGQAPRTLIYFKDTRSSGVPDRFSGSILGNKAALTITGAQADDESDYYCALSMGSGIWVFGGGTKLTVL
As for B1, the O.D. 450 nm in test [1] amounted to 0.0002 O.D. 450 nm. In addition, in test [2], the ELISA O.D. value is 3.62 O.D and the O.D. 450 nm turned out to be 3.36 O.D. 450 nm.

B2: 3F antibody (antibody, V domains shown)
VH: QMQLVQSGAEVKKPGASVKVSCKASGYTFTDYYIHWVRQAPGQGLEWMGWINPNSGAPEFAQRFQGRVSMTRDASINTTYMELSGLRSEDTAVYYCVKGLEHAAGSAIFDRWGQGTMVTVSS
VL: QTVVTQEPSFSVSPGGTVTLTCGLTSGSVSTSHFPSWYQQTPGQAPRTLIYFKDTRSSGVPDRFSGSILGNKAALTITGAQADDESDYYCALSMGSGIWVFGGGTKLTVL
B2: the O.D. 450 nm is -0.0105 O.D. 450 nm in test [3] and 0.0149 O.D. 450 nm in test [4].

B3: mono-scFv-phage No. 6 (scFv, V domains shown)
VH: QVQLVESGGGVVRPGGSLRLSCTASGFTFDDHGMSWVRQAPGKGLEWVSTINLNGGSTAYADSVKGRFTISRDNAKNSLYLQMNSLRAEDTAVYYCSTRHLHHWGQGTLVTVSS
VL: DIVMTQTPLSSPVTLGQPASISCRSSQSLVHSNGNTYLTWLQQRPGQPPRLLIHKISNRFSGVPDRFSGSGAGTDFTLKISRVEAEDVGVYYCVQAKQFPLTFGQGTRLEIK
Turning to B3, in test [1], the O.D. 450 nm worked out at 0.0041 O.D. 450 nm. Moreover, in test [2], the ELISA O.D. value is 2.22 O.D and the O.D. 450 nm was 1.95 O.D. 450 nm.

B4: 6F antibody (antibody, V domains shown)
VH: QVQLVESGGGVVRPGGSLRLSCTASGFTFDDHGMSWVRQAPGKGLEWVSTINLNGGSTAYADSVKGRFTISRDNAKNSLYLQMNSLRAEDTAVYYCSTRHLHHWGQGTLVTVSS
VL: DIVMTQTPLSSPVTLGQPASISCRSSQSLVHSNGNTYLTWLQQRPGQPPRLLIHKISNRFSGVPDRFSGSGAGTDFTLKISRVEAEDVGVYYCVQAKQFPLTFGQGTRLEIK
As for B4, the O.D. 450 nm in test [3] turned out to be 0.0114 O.D. 450 nm; in test [4], 2.36 O.D. 450 nm.

B5: mono-scFv-phage No. 10 (scFv, V domains shown)
VH: QVQLVESGGGLIQPGGSLRLSCVASGFTVSSSFMSWVRLAPGKGLEWVALAYSGGNTYYADSVKGRFTVSRDDSSNTLYLQMNSLRAEDTAVYYCSCEGKAVSGSRDLHFEFWSPGTLVTVSS
VL: SYELTQAPSLSVSPGQTANIICSGDNLRTKYVSWYQQKPGQAPVLVIYNDNDRPSGIPERFSGTNSGNTAALTISRVEAGDEADYYCQVWDSSSDHLIFGGGTKLTVL
Turning to B5, the O.D. 450 nm in test [1] was found to be 0.0023 O.D. 450 nm; in test [2], 1.81 O.D. 450 nm. The ELISA O.D. value in test [2] was 2.07 O.D.

B6: 10F antibody (antibody, V domains shown)
VH: QVQLVESGGGLIQPGGSLRLSCVASGFTVSSSFMSWVRLAPGKGLEWVALAYSGGNTYYADSVKGRFTVSRDDSSNTLYLQMNSLRAEDTAVYYCSCEGKAVSGSRDLHFEFWSPGTLVTVSS
VL: SYELTQAPSLSVSPGQTANIICSGDNLRTKYVSWYQQKPGQAPVLVIYNDNDRPSGIPERFSGTNSGNTAALTISRVEAGDEADYYCQVWDSSSDHLIFGGGTKLTVL
Consider B6, for which the O.D. 450 nm in test [3] was -0.0248 O.D. 450 nm; in test [4] it was 0.00605 O.D. 450 nm.

B7: mono-scFv-phage No. 8 (scFv, V domains shown)
VH: QVQLVQSGGGVVQPGGSLRLSCAASGFSFNDYAMHWVRQVPGKGLEWVSSISWNSRSTVYAASVEGRFSISRDNSKNSLYLQMNSLRAEDAAVYYCTTDLGVVPAAIYAFDIWGQGTMVTVSS
VL: DIQMTQSPSVMSASVGDRVNITCRASQGITNWLAWYQQKPGKAPKLLISAASSLQSGVPSRFSGSGSGTDFTLTISSLQPDDFATYYCQQTATFQITFGQGTRLDIK
Molecule B7 returned an O.D. 450 nm in test [1] of 0.0044 O.D. 450 nm. In test [2], the ELISA O.D. value stood at 2.08 O.D and the O.D. 450 nm was determined as 1.82 O.D. 450 nm.

B8: 8F antibody (antibody, V domains shown)
VH: QVQLVQSGGGVVQPGGSLRLSCAASGFSFNDYAMHWVRQVPGKGLEWVSSISWNSRSTVYAASVEGRFSISRDNSKNSLYLQMNSLRAEDAAVYYCTTDLGVVPAAIYAFDIWGQGTMVTVSS
VL: DIQMTQSPSVMSASVGDRVNITCRASQGITNWLAWYQQKPGKAPKLLISAASSLQSGVPSRFSGSGSGTDFTLTISSLQPDDFATYYCQQTATFQITFGQGTRLDIK
Consider B8, for which the O.D. 450 nm in test [3] was -0.0268 O.D. 450 nm; in test [4], 2.32 O.D. 450 nm.
